Two substances from paper PMC4609494 can be followed below.

Assay [1] deals with TNF receptor-1 (TNFR-1), rat (rat) (UniProt P22934).
For assay [2] the target is unchanged. The source holds these as a separate data set.
Assay [3] addresses TNF receptor-2 (TNFR-2), rat (rat) (UniProt Q80WY6).
Assay [4] has the same target. This is another data set of the same source.

UniProt Q80WY6, sequence (Q80WY6 23-474): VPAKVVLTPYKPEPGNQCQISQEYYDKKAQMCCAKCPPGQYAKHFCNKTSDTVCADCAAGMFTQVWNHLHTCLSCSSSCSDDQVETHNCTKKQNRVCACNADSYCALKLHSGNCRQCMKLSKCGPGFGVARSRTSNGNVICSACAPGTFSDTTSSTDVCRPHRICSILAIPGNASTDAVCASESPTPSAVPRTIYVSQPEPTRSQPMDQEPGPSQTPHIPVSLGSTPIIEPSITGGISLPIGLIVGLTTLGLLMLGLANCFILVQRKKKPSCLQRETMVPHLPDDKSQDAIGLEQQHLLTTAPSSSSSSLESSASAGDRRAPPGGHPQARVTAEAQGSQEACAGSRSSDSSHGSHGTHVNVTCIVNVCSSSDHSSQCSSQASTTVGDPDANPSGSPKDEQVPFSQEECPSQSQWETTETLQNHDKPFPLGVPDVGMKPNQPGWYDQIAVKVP
UniProt P22934, sequence (P22934 30-461): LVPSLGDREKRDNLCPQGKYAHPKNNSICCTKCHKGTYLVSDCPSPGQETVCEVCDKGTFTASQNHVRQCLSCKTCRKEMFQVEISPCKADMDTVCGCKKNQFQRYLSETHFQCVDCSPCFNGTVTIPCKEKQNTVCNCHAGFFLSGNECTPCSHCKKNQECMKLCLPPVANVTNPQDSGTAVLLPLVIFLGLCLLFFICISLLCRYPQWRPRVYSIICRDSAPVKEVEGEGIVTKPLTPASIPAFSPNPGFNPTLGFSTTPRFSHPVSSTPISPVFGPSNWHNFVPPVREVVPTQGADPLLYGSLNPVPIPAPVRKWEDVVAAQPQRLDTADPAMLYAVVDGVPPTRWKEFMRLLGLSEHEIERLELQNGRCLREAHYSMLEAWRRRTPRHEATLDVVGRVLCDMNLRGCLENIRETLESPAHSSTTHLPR

In assay [1], “TNF mutant protein R32W (R32W/S86T), selective TNFR-1 agonist (ligand)” returned an increase of the voltage-gated sodium channel current I Na(V) in small rat DRG neurons, whole-cell patch clamp, repetitive depolarization to 0 mV, R32W 10 pg (dose-dependent over 1-100 pg) of 27.2%. This substance showed an increase of the TTX-resistant NaV1.8 current I NaV(1.8) in small rat DRG neurons, whole-cell patch clamp, repetitive depolarization to 0 mV, R32W 100 pg, 300 s after treatment in assay [2] of 18.9%.
As for “TNF mutant protein D145 (D143N/A145R), selective TNFR-2 agonist (ligand)”, the increase of the voltage-gated sodium channel current I Na(V) in small rat DRG neurons, whole-cell patch clamp, repetitive depolarization to 0 mV, D145 10 pg (dose-dependent over 1-100 pg) in assay [3] was 44.9%. Moreover, the increase of the TTX-resistant NaV1.8 current I NaV(1.8) in small rat DRG neurons, whole-cell patch clamp, repetitive depolarization to 0 mV, D145 100 pg, 300 s after treatment in assay [4] is 14.5%.
